In IntAct's records for PubMed 29039417:

B1: BBSome complex member BBS2 (Homo sapiens), Q9BXC9 (parent)
chain: MLLPVFTLKLRHKISPRMVAIGRYDGTHPCLAAATQTGKVFIHNPHTRNQHVSASRVFQSPLESDVSLLSINQAVSCLTAGVLNPELGYDALLVGTQTNLLAYDVYNNSDLFYREVADGANAIVLGTLGDISSPLAIIGGNCALQGFNHEGSDLFWTVTGDNVNSLALCDFDGDGKKELLVGSEDFDIRVFKEDEIVAEMTETEIVTSLCPMYGSRFGYALSNGTVGVYDKTSRYWRIKSKNHAMSIHAFDLNSDGVNELITGWSNGKVDARSDRTGEVIFKDNFSSAIAGVVEGDYRMDGHIQLICCSVDGEIRGYLPGTAEMRGNLMDTSAEQDLIRELSQKKQNLLLELRNYEENAKAELASPLNEADGHRGIIPANTRLHTTLSVSLGNETQTAHTELRISTSNDTIIRAVLIFAEGIFTGESHVVHPSIHNLSSSICIPIVPPKDVPVDLHLKAFVGYRSSTQFHVFESTRQLPRFSMYALTSLDPASEPISYVNFTIAERAQRVVVWLGQNFLLPEDTHIQNAPFQVCFTSLRNGGHLHIKIKLSGEITINTDDIDLAGDIIQSMASFFAIEDLQVEADFPVYFEELRKVLVKVDEYHSVHQKLSADMADHSNLIRSLLVGAEDARLMRDMKTMKSRYMELYDLNRDLLNGYKIRCNNHTELLGNLKAVNQAIQRAGRLRVGKPKNQVITACRDAIRSNNINTLFKIMRVGTASS
partner: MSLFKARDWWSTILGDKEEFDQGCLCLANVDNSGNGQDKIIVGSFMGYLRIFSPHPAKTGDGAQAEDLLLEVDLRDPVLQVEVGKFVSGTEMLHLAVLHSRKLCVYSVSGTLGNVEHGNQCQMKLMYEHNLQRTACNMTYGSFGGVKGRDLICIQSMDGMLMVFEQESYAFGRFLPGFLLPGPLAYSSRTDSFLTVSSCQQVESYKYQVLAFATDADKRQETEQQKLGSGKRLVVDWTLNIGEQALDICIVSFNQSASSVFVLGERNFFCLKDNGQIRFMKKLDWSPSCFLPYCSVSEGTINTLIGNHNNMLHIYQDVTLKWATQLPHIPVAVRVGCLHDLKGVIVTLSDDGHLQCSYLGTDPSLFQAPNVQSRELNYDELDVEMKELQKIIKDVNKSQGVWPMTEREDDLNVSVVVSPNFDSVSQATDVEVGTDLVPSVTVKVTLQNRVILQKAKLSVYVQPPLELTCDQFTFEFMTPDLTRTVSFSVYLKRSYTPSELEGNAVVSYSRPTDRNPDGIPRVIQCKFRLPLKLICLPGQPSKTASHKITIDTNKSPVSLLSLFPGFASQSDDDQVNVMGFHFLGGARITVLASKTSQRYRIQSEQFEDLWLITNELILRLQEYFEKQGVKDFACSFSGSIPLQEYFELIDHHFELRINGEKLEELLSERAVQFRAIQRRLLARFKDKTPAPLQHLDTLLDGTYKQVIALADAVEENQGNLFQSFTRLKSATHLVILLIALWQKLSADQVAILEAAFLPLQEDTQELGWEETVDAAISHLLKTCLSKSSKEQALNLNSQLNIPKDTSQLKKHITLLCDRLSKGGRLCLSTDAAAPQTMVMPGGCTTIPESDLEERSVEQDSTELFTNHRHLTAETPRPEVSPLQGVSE
B2: BBSome complex member BBS4 (Homo sapiens), Q96RK4 (parent)
chain: MAEERVATRTQFPVSTESQKPRQKKAPEFPILEKQNWLIHLHYIRKDYEACKAVIKEQLQETQGLCEYAIYVQALIFRLEGNIQESLELFQTCAVLSPQSADNLKQVARSLFLLGKHKAAIEVYNEAAKLNQKDWEISHNLGVCYIYLKQFNKAQDQLHNALNLNRHDLTYIMLGKIHLLEGDLDKAIEVYKKAVEFSPENTELLTTLGLLYLQLGIYQKAFEHLGNALTYDPTNYKAILAAGSMMQTHGDFDVALTKYRVVACAVPESPPLWNNIGMCFFGKKKYVAAISCLKRANYLAPFDWKILYNLGLVHLTMQQYASAFHFLSAAINFQPKMGELYMLLAVALTNLEDIENAKRAYAEAVHLDKCNPLVNLNYAVLLYNQGEKKNALAQYQEMEKKVSLLKDNSSLEFDSEMVEMAQKLGAALQVGEALVWTKPVKDPKSKHQTTSTSKPASFQQPLGSNQALGQAMSSAAAYRTLPSGAGGTSQFTKPPSLPLEPEPAVESSPTETSEQIREK
partner: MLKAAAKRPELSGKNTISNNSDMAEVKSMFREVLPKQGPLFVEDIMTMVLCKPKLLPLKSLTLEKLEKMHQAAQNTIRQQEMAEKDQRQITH

Variants of: B1
Conditions: with pthb1_human BBS9, Q3SYG4

Row | effect of a mutation on the interaction | Variant
1 | with no effect | G657K
2 | with no effect | P690E
3 | with no effect | P690A
4 | with no effect | P690K
5 | with no effect | S704K
6 | with no effect | S704A
7 | with no effect | S704E
8 | with no effect | S720A
9 | with no effect | S720K
10 | with no effect | S720E
11 | with no effect | Q680E
12 | with no effect | Q680A
13 | with no effect | Q680K
14 | with no effect | C698A
15 | with no effect | C698K
16 | with no effect | C698E
17 | with no effect | R686K
18 | with no effect | R686E
19 | with no effect | R686A
20 | with no effect | V675A
21 | with no effect | V675K
22 | with no effect | V675E
23 | with no effect | K712E

Row | effect of a mutation on the interaction | Variant
24 | with no effect | K712A
25 | with no effect | V716E
26 | with no effect | V716K
27 | with no effect | V716A
28 | with no effect | R684E
29 | with no effect | R684K
30 | with no effect | R684A
31 | with no effect | M714A
32 | with no effect | M714E
33 | with no effect | M714K
34 | with no effect | N692K
35 | with no effect | N692A
36 | with no effect | N692E
37 | with no effect | G717K
38 | with no effect | G717E
39 | with no effect | G717A
40 | with no effect | A701K
41 | with no effect | A701E
42 | with no effect | K659E
43 | with no effect | K659A
44 | with no effect | F711E
45 | with no effect | F711K
46 | with no effect | F711A

Row | effect of a mutation on the interaction | Variant
47 | with no effect | I707E
48 | with no effect | I707K
49 | with no effect | I707A
50 | with no effect | V694E
51 | with no effect | V694K
52 | with no effect | V694A
53 | with no effect | N708A
54 | with no effect | N708E
55 | with no effect | N708K
56 | with no effect | H665A
57 | with no effect | H665K
58 | with no effect | H665E
59 | with no effect | T718K
60 | with no effect | T718A
61 | with no effect | T718E
62 | with no effect | A674E
63 | with no effect | A674K
64 | with no effect | I702A
65 | with no effect | I702K
66 | with no effect | I702E
67 | with no effect | R681K
68 | with no effect | R681A
69 | with no effect | R681E

Row | effect of a mutation on the interaction | Variant
70 | with no effect | L685K
71 | with no effect | L685E
72 | with no effect | L685A
73 | with no effect | E667K
74 | with no effect | E667A
75 | with no effect | T709K
76 | with no effect | T709E
77 | with no effect | T709A
78 | with no effect | I679E
79 | with no effect | I679A
80 | with no effect | I679K
81 | with no effect | Q693K
82 | with no effect | Q693A
83 | with no effect | Q693E
84 | with no effect | R661K
85 | with no effect | R661A
86 | with no effect | R661E
87 | with no effect | N664E
88 | with no effect | N664A
89 | with no effect | N664K
90 | with no effect | I660A
91 | with no effect | I660K
92 | with no effect | I660E

Row | effect of a mutation on the interaction | Variant
93 | with no effect | R715A
94 | with no effect | R715K
95 | with no effect | R715E
96 | with no effect | L672E
97 | with no effect | L672K
98 | with no effect | L672A
99 | with no effect | A697K
100 | with no effect | A697E
101 | with no effect | L669A
102 | with no effect | L669E
103 | with no effect | L669K
104 | with no effect | N671A
105 | with no effect | N671K
106 | with no effect | N671E
107 | with no effect | T666K
108 | with no effect | T666A
109 | with no effect | T666E
110 | with no effect | K691A
111 | with no effect | K691E
112 | with no effect | Y658A
113 | with no effect | Y658K
114 | with no effect | Y658E
115 | with no effect | T696A

Row | effect of a mutation on the interaction | Variant
116 | with no effect | T696K
117 | with no effect | T696E
118 | with no effect | D700E
119 | with no effect | D700A
120 | with no effect | D700K
121 | with no effect | G688A
122 | with no effect | G688E
123 | with no effect | K689E
124 | with no effect | K689A
125 | with no effect | A678E
126 | with no effect | A678K
127 | with no effect | V687K
128 | with no effect | V687A
129 | with no effect | V687E
130 | with no effect | L668E
131 | with no effect | L668K
132 | with no effect | L668A
133 | with no effect | K673A
134 | with no effect | K673E
135 | with no effect | N705K
136 | with no effect | N705E
137 | with no effect | N705A
138 | with no effect | C662K

Row | effect of a mutation on the interaction | Variant
139 | with no effect | C662A
140 | with no effect | C662E
141 | with no effect | I713E
142 | with no effect | I713A
143 | with no effect | I713K
144 | with no effect | N676E
145 | with no effect | N676A
146 | with no effect | N676K
147 | with no effect | A719K
148 | with no effect | A719E
149 | with no effect | I695A
150 | with no effect | I695E
151 | with no effect | I695K
152 | with no effect | N663K
153 | with no effect | N663A
154 | with no effect | N663E
155 | with no effect | L710K
156 | with no effect | L710E
157 | with no effect | L710A
158 | with no effect | N706E
159 | with no effect | N706A
160 | with no effect | N706K
161 | with no effect | G670A

Row | effect of a mutation on the interaction | Variant
162 | with no effect | G670E
163 | with no effect | G670K
164 | with no effect | R703K
165 | with no effect | R703A
166 | with no effect | R703E
167 | with no effect | S721K
168 | with no effect | S721A
169 | with no effect | S721E
170 | with no effect | A682K
171 | with no effect | A682E
172 | with no effect | Q677A
173 | with no effect | Q677E
174 | with no effect | Q677K
175 | disrupting interaction strength | Q677L
176 | with no effect | R699E
177 | with no effect | R699A
178 | with no effect | R699K
179 | with no effect | G683E
180 | with no effect | G683K
181 | with no effect | G683A

Variants of: B2
Conditions: with bbip1_human BBIP1, A8MTZ0

Row | effect of a mutation on the interaction | Variant
182 | disrupting interaction strength | MAEERVATRTQFPVSTESQKPRQKKAPEFPILEKQNWLIHLHYIRKDYEACKAVIKEQLQETQGLCEYAIYVQALIFRLEGNIQESLELFQTCAVLSPQSADNLKQVARSLFLLGKHKAAIEVYNEAAKLNQKDWEISHNLGVCYIYLKQFNKAQDQLHNALNLNRHDLTYIMLGKIHLLEGDLDKAIEVYKKAVEFSPENTELLTTLGLLYLQLGIYQKAFEHLGNALTYDPTNYKAILAAGSMMQTHGDFDVALTKYRVVACAVPESPPLWNNIGMCFFGKKKYVAAISCLKRANYLAPFDWKILYNLGLVHLTMQQYASAFHFPSAAINFQPKMGELYMLLAVALTNLEDIENAKRAYAEAVHLDKCNPLVNLNYAVLLYNQGEKKNALAQYQEMEKKVSLLKDNSSLEFDSEMVEMAQKLGAALQVGEALVWTKPVKDPKSKHQTTSTSKPASFQQPLGSNQALGQAMSSAAAYRTLPSGAGGTSQFTKPPSLPLEPEPAVESSPTETSEQIREK [L327P]
